Reference: patent US6641994B2, “Methods of identifying anti-viral agents” (Pharmacia & Upjohn Company, priority 1999, dated 2003)
Where no end group is shown, it is not given here.

Key:
CDK2 = molecular target: T1, CDK2 (Homo sapiens, UniProt P20248+P24941); assay type: biochemical
T1 construct: hemagglutinin (HA); made in house; host or cells: Sf9 or High Five insect cells, baculovirus co-infection

cyclin A/CDK2 = molecular target: T2, cyclin A/CDK2 (Homo sapiens, UniProt P20248+P24941); assay type: biochemical
T2 construct: hemagglutinin (HA); made in house; host or cells: Sf9 or High Five insect cells, baculovirus co-infection
T2 sequence (P20248 whole entry, one chain of several): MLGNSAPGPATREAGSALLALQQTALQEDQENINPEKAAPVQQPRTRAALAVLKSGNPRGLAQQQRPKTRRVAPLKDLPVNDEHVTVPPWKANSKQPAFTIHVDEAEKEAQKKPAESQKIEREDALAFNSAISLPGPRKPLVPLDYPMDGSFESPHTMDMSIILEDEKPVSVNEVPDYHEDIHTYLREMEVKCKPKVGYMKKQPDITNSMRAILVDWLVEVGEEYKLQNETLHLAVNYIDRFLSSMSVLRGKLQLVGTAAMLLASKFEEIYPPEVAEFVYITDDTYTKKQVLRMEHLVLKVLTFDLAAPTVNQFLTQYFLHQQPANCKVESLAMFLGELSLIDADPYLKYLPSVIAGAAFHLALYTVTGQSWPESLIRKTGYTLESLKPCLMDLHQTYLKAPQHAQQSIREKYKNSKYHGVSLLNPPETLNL

T1 sequence (P20248 whole entry, one chain of several): as above

## GST-16E7 (16-38): internal HPV16 E7 region, residues 16-38, GST fusion
CDK2
  induced kinase activity, level relative to that by full length E7: 53%

## GST-16E7(1-27): HPV16 E7 truncation, residues 1-27, GST fusion (MHGDTPTLHEYMLDLQPETTDLYCYEQ; also: GST fusion partner left off)
CDK2
  relative kinase activity compared to activity in the presence of full length E7: 28.64%
  relative kinase activity compared to full length E7, repeat experiment: 52%

## GST-E7 (20-48): internal HPV16 E7 region, residues 20-48, GST fusion (TDLYCYEQLNDSSEEEDEIDGPAGQAEPD; also: GST fusion partner left off)
CDK2
  induced kinase activity, level relative to that by full length E7: 33%

## GST: glutathione-S-transferase alone, control for the fusion proteins [reference compound]
Cyclin A/CDK2
  effect on cyclin A/CDK2 histone H1 kinase activity: no effect

## HPV E7(1-15): HPV16 E7 truncation, residues 1-15, GST fusion (MHGDTPTLHEYMLDL; also: GST fusion partner left off)
CDK2
  relative kinase activity compared to activity in the presence of full length E7: 15%

## HPV E7(1-38): HPV16 E7 truncation, residues 1-38, GST fusion (MHGDTPTLHEYMLDLQPETTDLYCYEQLNDSSEEEDEI; also: GST fusion partner left off)
CDK2
  relative kinase activity compared to activity in the presence of full length E7: approximately 72%

## HPV E7(1-48): HPV16 E7 truncation, residues 1-48, GST fusion (MHGDTPTLHEYMLDLQPETTDLYCYEQLNDSSEEEDEIDGPAGQAEPD; also: GST fusion partner left off)
CDK2
  relative kinase activity compared to activity in the presence of full length E7: 73.25%

B1: HPV E7(1-87): HPV16 E7 truncation, residues 1-87, GST fusion (protein)
chain: MHGDTPTLHEYMLDLQPETTDLYCYEQLNDSSEEEDEIDGPAGQAEPDRAHYNIVTFCCKCDSTLRLCVQSTHVDIRTLEDLLMGTL
modifications: left off: a dimerising Fc or GST
notes: HPV16 E7 truncation, residues 1-87, GST fusion
CDK2
  relative kinase activity compared to activity in the presence of full length E7: 76.67%

B2: HPV E7(1-69): HPV16 E7 truncation, residues 1-69, GST fusion (protein)
chain: MHGDTPTLHEYMLDLQPETTDLYCYEQLNDSSEEEDEIDGPAGQAEPDRAHYNIVTFCCKCDSTLRLCV
modifications: also: GST fusion partner left off
notes: HPV16 E7 truncation, residues 1-69, GST fusion
CDK2
  relative kinase activity compared to activity in the presence of full length E7: 82.45%

B3: GST-HPV16-E7(9-98): GST-E7 construct encoding HPV16 amino acids 9-98 (protein)
chain: HEYMLDLQPETTDLYCYEQLNDSSEEEDEIDGPAGQAEPDRAHYNIVTFCCKCDSTLRLCVQSTHVDIRTLEDLLMGTLGIVCPICSQKP
modifications: left off: a dimerising Fc or GST
Cyclin A/CDK2
  activation of cyclinA/CDK2, % of the activation activity of full length GST-HPV 16 E7: 64%

B4: Δ12; Δ24, 26: E7 with combined point mutations Δ12 and Δ24, 26 (protein, UniProt P03129 1-98, looked up, variant M12* C24* E26*)
Protein E7: MHGDTPTLHEYLDLQPETTDLYYQLNDSSEEEDEIDGPAGQAEPDRAHYNIVTFCCKCDSTLRLCVQSTHVDIRTLEDLLMGTLGIVCPICSQKP
modifications: GST fusion
CDK2
  % Control Activation Exp. 1: 85.2%
  % Control Activation Exp. 2: 93.5%

B5: HPV6b: low risk-derived E7 from HPV6b, expressed as a GST fusion protein (protein)
chain: MHGRHVTLKDIVLDLQPPDPVGLHCYEQLVDSSEDEVDEVDGQDSQPLKQHFQIVTCCCGCDSNVRLVVQCTETDIREVQQLLLGTLNIVCPICAPKT
modifications: left off: a dimerising Fc or GST
CDK2
  activation of CDK2 histone kinase activity: 15.8 fold

B6: Δ12; Δ24, 26; Δ31, 32: E7 with combined point mutations Δ12, Δ24, 26 and Δ31, 32 (protein, UniProt P03129 1-98, looked up, variant M12* C24* E26* S31* S32*)
Protein E7: MHGDTPTLHEYLDLQPETTDLYYQLNDEEEDEIDGPAGQAEPDRAHYNIVTFCCKCDSTLRLCVQSTHVDIRTLEDLLMGTLGIVCPICSQKP
modifications: GST fusion
CDK2
  % Control Activation Exp. 2: 83.1%
